Results from PMC13247719.
Read-outs that look alike come from different tables or passages of the source.

T1: LIN28A (mouse, UniProt Q8K3Y3 1-209)
T1 sequence: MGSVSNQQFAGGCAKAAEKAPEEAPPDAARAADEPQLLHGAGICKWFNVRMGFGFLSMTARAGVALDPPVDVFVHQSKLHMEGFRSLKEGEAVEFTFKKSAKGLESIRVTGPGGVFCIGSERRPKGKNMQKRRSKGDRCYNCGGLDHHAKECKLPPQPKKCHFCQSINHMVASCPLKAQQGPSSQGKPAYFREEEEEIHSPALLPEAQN

T2: LIN28A H148A (mouse, UniProt Q8K3Y3 1-209, H148A)
T2 sequence: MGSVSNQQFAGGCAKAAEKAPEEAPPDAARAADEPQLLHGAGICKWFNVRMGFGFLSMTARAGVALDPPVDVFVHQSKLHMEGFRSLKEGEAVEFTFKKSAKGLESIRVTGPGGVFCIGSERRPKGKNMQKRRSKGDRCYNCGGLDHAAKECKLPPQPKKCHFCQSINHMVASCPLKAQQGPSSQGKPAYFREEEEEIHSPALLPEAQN

T3: LIN28A Y140A (mouse, UniProt Q8K3Y3 1-209, Y140A)
T3 sequence: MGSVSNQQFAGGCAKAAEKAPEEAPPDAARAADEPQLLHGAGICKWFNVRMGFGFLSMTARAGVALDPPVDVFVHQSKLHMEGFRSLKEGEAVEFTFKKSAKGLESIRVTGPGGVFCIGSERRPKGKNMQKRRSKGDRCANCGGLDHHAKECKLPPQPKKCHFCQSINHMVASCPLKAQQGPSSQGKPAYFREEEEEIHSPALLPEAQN

T4: LIN28A CSD (mouse, UniProt Q8K3Y3 16-136)
T4 sequence: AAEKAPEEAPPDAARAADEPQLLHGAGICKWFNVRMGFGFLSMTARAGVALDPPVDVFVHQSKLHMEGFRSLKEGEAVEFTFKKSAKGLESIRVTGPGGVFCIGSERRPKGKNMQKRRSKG

T5: LIN28A H162A (mouse, UniProt Q8K3Y3 1-209, H162A)
T5 sequence: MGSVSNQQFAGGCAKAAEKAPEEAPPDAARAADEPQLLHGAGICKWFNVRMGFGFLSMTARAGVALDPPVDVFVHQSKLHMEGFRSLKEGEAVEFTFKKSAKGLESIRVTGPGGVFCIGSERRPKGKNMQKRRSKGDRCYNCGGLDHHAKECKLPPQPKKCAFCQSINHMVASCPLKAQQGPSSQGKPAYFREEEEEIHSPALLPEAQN

T6: LIN28A I167A (mouse, UniProt Q8K3Y3 1-209, I167A)
T6 sequence: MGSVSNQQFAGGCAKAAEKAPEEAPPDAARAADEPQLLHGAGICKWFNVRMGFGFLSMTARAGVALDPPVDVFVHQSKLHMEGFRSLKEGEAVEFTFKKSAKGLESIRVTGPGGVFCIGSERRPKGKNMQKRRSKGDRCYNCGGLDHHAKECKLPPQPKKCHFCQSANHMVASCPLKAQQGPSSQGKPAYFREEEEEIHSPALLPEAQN


Experiments:
Test in all cases: SPR
LIN28A [1] = target: T1, LIN28A
LIN28A [2] = target: T1, LIN28A; remark: listed apart in the source
LIN28A H148A = target: T2, LIN28A H148A
LIN28A Y140A = target: T3, LIN28A Y140A
LIN28A CSD = target: T4, LIN28A CSD
LIN28A H162A = target: T5, LIN28A H162A
LIN28A I167A = target: T6, LIN28A I167A

Row | Binder | Kd (LIN28A [1]) [nM] | Kd (LIN28A [2]) [nM] | Kd (LIN28A H148A) [nM] | Kd (LIN28A Y140A) [nM] | Kd (LIN28A CSD) [nM] | Kd (LIN28A H162A) [nM] | Kd (LIN28A I167A) [nM]
1 | GGGGUAGUGAUUUUACCCUGUUUAUGAGAU (structured_RNA) [preE-let-7f-1 UGAG] | 387 |  |  |  |  |  | 
2 | GGGGUAGUGAUUUUACCCUGUUUAGGAGAU (structured_RNA) [preE-let-7f-1 biotin] |  | 92 | 276 | 410 | 808 | 382 | 99.5
